Reference: patent US20240425583A1, “METHODS AND COMPOSITIONS RELATED TO MCL-1 AND BIM HETERODIMER ANTIBODIES” (priority 2021, published 2024)

Assays:
[1] = test system: HCC70 triple negative breast cancer cells; experiment: IHC staining of FFPE HCC70 cells, wild-type vs BIM siRNA; format: cell-based, human; conditions: for HSMCB IHC signal intensity: BIM-siRNA transfected HCC70 cells vs wild-type, FIG. 3
Text: (§1) The MCL-1/BIM heterodimer antibody (HSMCB) requires BIM to bind in situ. BIM siRNA was used on both MCF-7 and HCC70 cells (far left, and right middle columns, respectively), and the cells were then formalin-fixed and paraffin embedded into a tissue microarray (TMA) block, sectioned and added to glass slides, and stained with HSMCB. IHC images of the wild-type (WT) staining for both MCF-7 and HCC70 cells are shown in the middle-left, and far right columns, respectively. […] The images across the top panel in FIG. 3 are of an HSMCB antibody having CDRs selected from SEQ ID NO: 9, SEQ ID NO: 10, SEQ ID NO: 11, SEQ ID NO: 12, SEQ ID NO: 13, SEQ ID NO: 14, and having a variable heavy chain selected from SEQ ID NO: 15, and a variable light chain selected from SEQ ID NO: 16; and the images across the bottom panel in FIG. 3 are of an HSMCB antibody having CDRs selected from SEQ ID NO: 1, SEQ ID NO: 2, SEQ ID NO: 3, SEQ ID NO: 4, SEQ ID NO: 5, SEQ ID NO: 6, and having a variable heavy chain selected from SEQ ID NO: 7, and a variable light chain selected from SEQ ID NO: 8.
In the far left panel. IHC images of the HSMCB antibody are shown for both WT HCC70 cells, and Bim-siRNA transfected HCC70 cells. In the middle panel. IHC images of the HSBXB antibody are shown for both WT HCC70 cells, and Bim-siRNA transfected HCC70 cells. In the far right panel. IHC images are shown of HCC70 cells without application of HSMCB or HSBXB. […] The images in the left column of FIG. 4 are of an HSMCB antibody having CDRs selected from SEQ ID NO: 9, SEQ ID NO: 10, SEQ ID NO: 11, SEQ ID NO: 12, SEQ ID NO: 13, SEQ ID NO: 14, and having a variable heavy chain selected from SEQ ID NO: 15, and a variable light chain selected from SEQ ID NO: 16.
(§2) The experiments of this example show a set of IHC images relating to the application of the Mcl-1/Bim heterodimer antibody (HSMCB) to formalin-fixed paraffin-embedded (FFPE) specimens from MCF-7 breast cancer cells, and HCC70 triple negative breast cancer cells. […]

[2] = target: T1, covalent Mcl-1-Bim complex (Homo sapiens, UniProt Q07820); experiment: Flow cytometry detection of covalent Mcl-1-Bim complex immobilized on GSH beads; format: binding; conditions: directly labeled and secondary antibody detection, FIG. 12
T1 construct: mutated to delete their transmembrane domains; made in house; host or cells: E. coli BL21 (D3) for the Mcl-1 fusion; peptide UV-crosslinked to it
Text: In the experiments on the left side of the graph for HSMCB (i.e., the first two columns from the left on the graph), the HSMCB antibody is an antibody having CDRs selected from SEQ ID NO: 1, SEQ ID NO: 2, SEQ ID NO: 3, SEQ ID NO: 4, SEQ ID NO: 5, SEQ ID NO: 6, and having a variable heavy chain selected from SEQ ID NO: 7, and a variable light chain selected from SEQ ID NO: 8. In the next experiment near the middle of the graph for HSMCB (i.e., the second set of two columns in the middle on the graph), the antibody is an antibody having CDRs selected from SEQ ID NO: 9, SEQ ID NO: 10, SEQ ID NO: 11, SEQ ID NO: 12, SEQ ID NO: 13, SEQ ID NO: 14, and having a variable heavy chain selected from SEQ ID NO: 15, and a variable light chain selected from SEQ ID NO: 16. The antibody reactive with BcL-XL-Bim is used as a negative control, and Mcl1 (which recognizes both Mcl-1 monomer and Mcl-1-Bim complex) is used as a positive control. The signals using a directly labeled primary antibody (i.e., the first column in each set of two columns throughout the graph) and a secondary antibody detection system (i.e., the second column in each set of two columns throughout the graph) are shown.
AML patient samples were BH3 profiled in the experiments of this example. […] Patient samples were fixed, permeabilized, stained with HSMCB and anti-Mcl-1 antibody, and measured by flow cytometry. […]

[3] = test system: MCF-7 breast cancer cells; experiment: IHC staining of FFPE MCF-7 cells, wild-type vs BIM siRNA; format: cell-based, human; conditions: BIM-siRNA transfected MCF-7 cells vs wild-type, FIG. 3
Text: as §1, §2

T1 sequence (Q07820 1-327): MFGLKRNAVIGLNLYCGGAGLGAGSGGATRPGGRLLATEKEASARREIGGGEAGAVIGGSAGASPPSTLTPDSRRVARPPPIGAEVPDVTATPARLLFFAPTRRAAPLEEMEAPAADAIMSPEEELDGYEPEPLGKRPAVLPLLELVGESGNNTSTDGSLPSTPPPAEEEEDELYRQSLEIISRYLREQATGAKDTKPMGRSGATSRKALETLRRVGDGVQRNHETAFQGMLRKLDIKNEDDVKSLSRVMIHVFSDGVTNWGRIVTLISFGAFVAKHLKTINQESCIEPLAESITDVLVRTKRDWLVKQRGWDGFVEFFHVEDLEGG
T1 sequence (O43521 146-166 partner): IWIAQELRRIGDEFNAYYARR

B1: HSMCB (SEQ ID NO: 7, SEQ ID NO: 8): MCL-1/BIM heterodimer antibody, CDRs SEQ ID NO: 1-6, variable heavy chain SEQ ID NO: 7, variable light chain SEQ ID NO: 8 (antibody, V domains shown)
VH: MNFGLSLIFLVLVLKGVQCEVQLVESGGDLVKPGGSLKLSCAVSGFTFSSYAMSWVRQTPAKRLEWVATISSGGFATYYPDTVKGRFTISRDNAKNTLYLQMSSLRSEDTAMYYCARHGGGSYGWFAYWGQGTLVTVSE
VL: MLSLAPLLSLLLLCVSDSRAETTVTQSPASLSVATGEKVTIRCITSTDIDDDMNWYQQKPGEPPKLLISEGNTLRPGVPSRFSSSGYGTDFVFTIENTLSEDFADYYCLQSDNMPYTFGGGTKLEIK
HSMCB IHC signal intensity [1]: reduced HSMCB IHC signal intensity | Mcl-1-Bim bead detection [2]: demonstrated | HSMCB IHC signal intensity [3]: reduced HSMCB IHC signal intensity

B2: HSMCB (SEQ ID NO: 15, SEQ ID NO: 16): MCL-1/BIM heterodimer antibody, CDRs SEQ ID NO: 9-14, variable heavy chain SEQ ID NO: 15, variable light chain SEQ ID NO: 16 (antibody, V domains shown)
VH: MDWIWIMLHLLAAATGLQSQVHLQQSGSELRSPGSSVKLSCKDFDSEVFPIAYMSWVRQKPGHGFEWIGDILPSIGRTIYGEKFEDKATLDADTVSNTAYLELNSLTSEDSAIYYCARQDTYYAMDYWGQGTSVTVSS
VL: MHFQVQIFSFLLISASVIMSRGQIVLTQSPAIMSASPGEKVTITCSASSSVSYMHWVQQKPGTSPKLWIYSTSNLASGVPARFRGSGSGTSYSLTISRMEAEDAATYYCQQRSSYPYTFGGGTKLEIK
HSMCB IHC signal intensity [1]: reduced HSMCB IHC signal intensity | IHC activity ([1]; Bim-siRNA transfected HCC70 cells vs WT, FIG. 4): reduced activity | Mcl-1-Bim bead detection [2]: demonstrated | HSMCB IHC signal intensity [3]: reduced HSMCB IHC signal intensity
